Target: T1, VWF-73 FRETS substrate, P04275
T1 chain: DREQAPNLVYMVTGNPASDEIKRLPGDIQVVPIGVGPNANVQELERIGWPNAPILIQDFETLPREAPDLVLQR

B1: mrADAMTS13 (truncated modified human recombinant ADAMTS13) (protein)
chain: AAGGILHLELLVAVGPDVFQAHQEDTERYVLTNLNIGAELLRDPSLGAQFRVHLVKMVILTEPEGAPNITANLTSSLLSVCGWSQTINPEDDTDPGHADLVLYITRFDLELPDGNRQVRGVTQLGGACSPTWSCLITEDTGFDLGVTIAHEIGHSFGLEHDGAPGSGCGPSGHVMASDGAAPRAGLAWSPCSRRQLLSLLSAGRARCVWDPPRPQPGSAGHPPDAQPGLYYSANEQCRVAFGPKAVACTFAREHLDMCQALSCHTDPLDQSSCSRLLVPLLDGTECGVEKWCSKGRCRSLVELTPIAAVHGRWSSWGPRSPCSRSCGGGVVTRRRQCNNPRPAFGGRACVGADLQAEMCNTQACEKTQLEFMSQQCARTDGQPLRSSPGGASFYHWGAAVPHSQGDALCRHMCRAIGESFIMKRGDSFLDGTRCMPSGPREDGTLSLCVSGSCRTFGCDGRMDSQQVWDRCQVCGGDNSTCSPRKGSFTAGRAREYVTFLTVTPNLTSVYIANHRPLFTHLAVRIGGRYVVAGKMSISPNTTYPSLLEDGRVEYRVALTEDRLPRLEEIRIWGPLQEDADIQVYRRYGEEYGNLTRPDITFTYFQPKPRQAKGELGTELGSEGKPIPNPLLGLDSTRTGHHHHHH
ADAMTS13 activity (VWF-73 FRETS assay): demonstrated enhanced activity of mrADAMTS13 compared to truncated wild type ADAMTS13 | ADAMTS13 specific activity of mrADAMTS13 released from PLGA microparticles (FRETS VWF-73 fluorescent emission): This data demonstrates active ADAMTS13 enzyme is present in all samples including at 120 hours

B2: Truncated wild-type ADAMTS13 (protein)
chain: AAGGILHLELLVAVGPDVFQAHQEDTERYVLTNLNIGAELLRDPSLGAQFRVHLVKMVILTEPEGAPNITANLTSSLLSVCGWSQTINPEDDTDPGHADLVLYITRFDLELPDGNRQVRGVTQLGGACSPTWSCLITEDTGFDLGVTIAHEIGHSFGLEHDGAPGSGCGPSGHVMASDGAAPRAGLAWSPCSRRQLLSLLSAGRARCVWDPPRPQPGSAGHPPDAQPGLYYSANEQCRVAFGPKAVACTFAREHLDMCQALSCHTDPLDQSSCSRLLVPLLDGTECGVEKWCSKGRCRSLVELTPIAAVHGRWSSWGPRSPCSRSCGGGVVTRRRQCNNPRPAFGGRACVGADLQAEMCNTQACEKTQLEFMSQQCARTDGQPLRSSPGGASFYHWGAAVPHSQGDALCRHMCRAIGESFIMKRGDSFLDGTRCMPSGPREDGTLSLCVSGSCRTFGCDGRMDSQQVWDRCQVCGGDNSTCSPRKGSFTAGRAREYVTFLTVTPNLTSVYIANHRPLFTHLAVRIGGRYVVAGKMSISPNTTYPSLLEDGRVEYRVALTEDRLPRLEEIRIWGPLQEDADIQVYRRYGEEYGNLTRPDITFTYFQPKPRQA
ADAMTS13 activity (VWF-73 FRETS assay): demonstrated enhanced activity of mrADAMTS13 compared to truncated wild type ADAMTS13

— patent publication US20240067947
